Here are results for six molecules from paper PMC4746701, “Crystal structure of SEL1L: Insight into the roles of SLR motifs in ERAD pathway” (Scientific Reports, 2016).

Residue numbers refer to the chain shown, from its start. Numbers in names are those of the source.

Data set [1] deals with the molecule itself. Put plainly: cross-linking; glutaraldehyde (0.005%) or dimethyl suberimidate (0.3 mM), products analysed by SDS-PAGE.
Data set [2] deals with the molecule itself. Put plainly: SEC; Superdex 200; 25 mM Tris, 150 mM NaCl, 5 mM DTT, pH 7.5. In general terms: In gel filtration, larger molecules generally elute earlier.
Data set [3] has as its target T1, MBP-SEL1L SLR-C (SLR motifs 10 and 11, residues 639–719) (Mus musculus, UniProt Q9Z2G6 639-719).
T1 construct: SEL1L, Mus musculus, residues 639-719 (SLR-C); source: purified; not shown: MBP, N-terminal, kept
Put plainly: pull-down; 400 μg GST-HRD1 luminal fragment on glutathione sepharose 4B beads, 100 μg MBP-SEL1L protein; 150 mM NaCl, 25 mM sodium phosphate pH 7.5, 5 mM DTT; 4 °C, 15 minutes; SDS-PAGE, Coomassie. The conditions noted are these: both partners purified.

T1 sequence (Q9Z2G6 639-719): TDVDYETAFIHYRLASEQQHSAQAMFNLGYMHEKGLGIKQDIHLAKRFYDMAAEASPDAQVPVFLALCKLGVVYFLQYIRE

B1: SEL1L^long (mouse SEL1L residues 337–554) (domain or fragment, Mus musculus, UniProt Q9Z2G6 337-554, looked up)
chain: RLPDEVENPGMNSGMLEEDLIQYYQFLAEKGDVQAQVGLGQLHLHGGRGVEQNHQRAFDYFNLAANAGNSHAMAFLGKMYSEGSDIVPQSNETALHYFKKAADMGNPVGQSGLGMAYLYGRGVQVNYDLALKYFQKAAEQGWVDGQLQLGSMYYNGIGVKRDYKQALKYFNLASQGGHILAFYNLAQMHASGTGVMRSCHTAVELFKNVCERGRWSER
notes: SEL1L, Mus musculus (790 amino acids), residues 337-554; also called the central region of SEL1L, residues 337–554; source: purified
As a reminder, the stoichiometry N is a count of units in the complex or per binding partner. For the molecule B1, the “stoichiometry N” value in data set [1] came out at 2.

B2: SEL1L^cent (mouse SEL1L central domain, SLR motifs 5 to 9, residues 348–533) (domain or fragment, Mus musculus, UniProt Q9Z2G6 348-533, looked up)
chain: NSGMLEEDLIQYYQFLAEKGDVQAQVGLGQLHLHGGRGVEQNHQRAFDYFNLAANAGNSHAMAFLGKMYSEGSDIVPQSNETALHYFKKAADMGNPVGQSGLGMAYLYGRGVQVNYDLALKYFQKAAEQGWVDGQLQLGSMYYNGIGVKRDYKQALKYFNLASQGGHILAFYNLAQMHASGTGVMR
notes: Forms a homodimer (crystal, cross-linking, AUC, SEC); also called wild-type SEL1L^cent; source: purified
B2: in data set [1], the “stoichiometry N” value was 2.

B3: SEL1L^cent G513A (domain or fragment, Mus musculus, UniProt Q9Z2G6 348-533, looked up)
chain: B2 chain with G166A
notes: source: purified
Consider B3, for which the binding result in data set [2] is reported as “binds”.

B4: SEL1L^cent G512A (domain or fragment, Mus musculus, UniProt Q9Z2G6 348-533, looked up)
chain: B2 chain with G165A
notes: source: purified
Take B4: in data set [2], the binding result is “binds”.

B5: SEL1L^cent Q460A (negative control point mutant) (domain or fragment, Mus musculus, UniProt Q9Z2G6 348-533, looked up)
chain: B2 chain with Q113A
notes: source: purified
As to B5, the binding result in data set [2] is “binds”.

B6: GST-HRD1 N-terminal luminal loop (residues 21–42) (domain or fragment, mouse, UniProt Q9DBY1 21-42, looked up)
chain: HAYYLKHQFYPTVVYLTKSSPS
notes: HRD1 E3 ubiquitin ligase, mouse, N-terminal luminal loop, residues 21-42; also called N-terminal luminal loop of HRD1; HRD1 luminal fragment GST-fusion protein; source: GST-fusion protein immobilised on glutathione sepharose 4B beads
On to B6, for which the binding result in data set [3] is recorded as “binds”.
